The source of these data is patent publication US20090068110A1, “ANTIBODIES TO INSULIN-LIKE GROWTH FACTOR RECEPTOR” (Genentech, Inc., priority 2006, published 2009).

Where only a bound is given, the exact number is not on record here.

For one series, the system named is A549 tumors. Nature of the series: A549 lung-cancer xenograft model. Format: in vivo, athymic nude mice. The note with it: h10H5.vX 5 mg/kg IP two times per week; vinorelbine 9 mg/kg weekly for first three weeks. An excerpt:
(§1) Female nude (nu/nu) and C.B-17 SCID beige mice were obtained from Charles Rivers Laboratories, Inc. (Hollister, Calif.). Animals were about six to eight weeks old and weighed about 25 grams each. Mice were acclimated to study conditions for at least three days before tumor-cell inoculations. The animals were housed in standard rodent micro-isolator cages. Only animals that appeared to be healthy and that were free of obvious abnormalities were used for the study. Each mouse was given a subcutaneous injection of SK-N-AS cells (10 million), SW527 cells (5 million), Colo205 cells (5 million), or A549 cells (5 million) into the dorsal right flank in a volume of 0.2 mL. Data collected from each experimental group were expressed as mean tumor volume±the standard error of the mean (SEM). Tumors were monitored until they reached a mean volume of 130-260 mm3. […] Tumors were measured twice weekly throughout the experiment starting on the first day of treatment. Tumor volumes were measured in two dimensions (length and width) using ULTRA CAL-IV™ calipers (Model 54-10-111, Fred V. Fowler Company, Inc.; Newton, Mass.), and calculated using the formula of: […]
(§2) Tumor-inhibition and body-weight graphs were plotted using […]™ 3.6 software (Synergy Software; Reading, Pa.). […]

The subject of the next series is SW527 xenograft tumors. The experiment in a line: SW527 breast-cancer xenograft model. Format: in vivo, SCID beige mice.
Description: as §1, §2
Tumor incidence was determined by the number of measurable tumors in each group. […]

Series [1] concerns Colo205-e215 xenograft tumors. Nature of the series: Colo205-e215 xenograft, combination with 5-FU. The note with it: h10H5.vX weekly IP; 5-FU 100 mg/kg weekly for first three weeks. The series is classed as in vivo, athymic nude mice.
Description: as §1, §2

The conditions of series [2]: CHF patients, enalapril in addition to conventional therapy; cited from earlier work.
The target in series [3] is human IGF-1R-ECD (secreted recombinant extracellular domain, amino acids 1-902, tagged with 10 or 12 histidine residues at the carboxyl terminus) (human) (UniProt P08069). Nature of the series: competition ELISA: antibody pre-incubated on plate-coated human IGF-1R-ECD, then biotinylated IGF-I (blocked ligand), streptavidin-HRP, A450. Background: ELISA stands for enzyme-linked immunosorbent assay.

Series [4] shares this target. Nature of the series: solid-phase binding assay: serially diluted antibody on plate-coated human IGF-1R-ECD, then biotinylated IGF-I (blocked ligand), streptavidin-HRP, A450; n=3.
For series [5] the target is unchanged. The experiment in a line: solid-phase binding assay: serially diluted antibody on plate-coated human IGF-1R-ECD, then biotinylated IGF-II (blocked ligand), streptavidin-HRP, A450; n=3.
Series [6] has as its target T1, IGF-1R α- and β-subunit in SK-N-AS cells (Homo sapiens, UniProt P08069).
T1 construct: h10H5-induced IGF-1R downregulation, SK-N-AS cells were pretreated; endogenous in cells; host or cells: SK-N-AS
The experiment in a line: h10H5-induced IGF-1R down-regulation with proteasome or lysosomal protease inhibitors. The note with it: one hour pretreatment; 30 μM bortezomib or 5 μM pepstatin A and 10 μg/ml leupeptin. Format: cell-based. The procedure: Both proteasome and lysosome pathways have been implicated in ligand-mediated IGF-1R degradation. To examine whether these pathways contribute to h10H5-induced IGF-1R downregulation, SK-N-AS cells were pretreated with either a combination of 5 μM of pepstatin A and 10 μg/ml of leupeptin or 30 μM of VELCADE® bortezomib for one hour, and subsequently exposed to h10H5 treatment for 1 to 8 hours in the presence of protease or protesome inhibitors. Cell lysates were analyzed for IGF-1R α-subunit and β-subunit by Western blotting. β-actin was used as a loading control. Because the extracellular (ECD) and intracellular (ICD) domains are exposed to different cellular environments during the internalization and trafficking processes, antibodies that specifically react to the α-subunit that is a major part of ECD or the C-terminus of the β-subunit, and therefore a part of ICD, were used for Western blot analysis.

In series [7] the target is human IGF-1R-ECD (secreted recombinant extracellular domain, amino acids 1-902, tagged with 10 or 12 histidine residues at the carboxyl terminus) (human) (UniProt P08069). Nature of the series: BIACORE surface plasmon resonance: IGF-1R immobilized on CM5 chip (about 500 RU), IgG injected 250-0.78 nM, 25 C, 1:1 Langmuir model (apparent affinity). (In general: SPR reads the build-up and loss of mass on a sensor chip optically.)

Another series addresses cynomolgus-monkey IGF-1R (cynomolgus monkey, UniProt G7P9I7 31-908). Described as above.
Series [8] deals with human IGF-1R-ECD (secreted recombinant extracellular domain, amino acids 1-902, tagged with 10 or 12 histidine residues at the carboxyl terminus) (human) (UniProt P08069). The experiment in a line: BIACORE surface plasmon resonance: IGF-1R immobilized on CM5 chip (about 500 RU), Fab injected 500-3.1 nM, 25 C, 1:1 Langmuir model.
Series [9] deals with murine IGF-1R-ECD (murine) (UniProt Q60751). Described as above.

cynomolgus-monkey IGF-1R, sequence (G7P9I7 entry or part of it): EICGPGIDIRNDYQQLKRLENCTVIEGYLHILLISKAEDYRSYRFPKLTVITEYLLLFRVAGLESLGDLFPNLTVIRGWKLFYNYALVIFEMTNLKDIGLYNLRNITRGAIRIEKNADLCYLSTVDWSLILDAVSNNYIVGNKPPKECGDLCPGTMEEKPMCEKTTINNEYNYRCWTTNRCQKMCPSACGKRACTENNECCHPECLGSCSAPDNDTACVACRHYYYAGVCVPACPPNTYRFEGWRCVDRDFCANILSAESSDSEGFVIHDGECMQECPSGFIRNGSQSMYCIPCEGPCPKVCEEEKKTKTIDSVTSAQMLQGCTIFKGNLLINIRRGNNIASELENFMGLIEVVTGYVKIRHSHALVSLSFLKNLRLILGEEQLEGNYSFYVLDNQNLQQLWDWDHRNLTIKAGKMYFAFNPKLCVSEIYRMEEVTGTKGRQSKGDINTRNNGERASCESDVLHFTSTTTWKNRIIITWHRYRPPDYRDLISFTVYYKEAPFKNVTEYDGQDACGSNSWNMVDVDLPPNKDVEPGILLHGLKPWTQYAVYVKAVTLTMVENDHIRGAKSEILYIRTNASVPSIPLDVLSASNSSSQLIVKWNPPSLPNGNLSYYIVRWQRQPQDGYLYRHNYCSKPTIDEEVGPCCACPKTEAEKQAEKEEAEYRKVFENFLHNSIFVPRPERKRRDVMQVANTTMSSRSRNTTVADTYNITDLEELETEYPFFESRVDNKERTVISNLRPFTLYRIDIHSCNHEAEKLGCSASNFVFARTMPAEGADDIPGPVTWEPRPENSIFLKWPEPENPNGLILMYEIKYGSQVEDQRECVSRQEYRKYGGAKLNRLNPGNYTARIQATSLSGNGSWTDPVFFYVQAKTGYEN

As for `CCC1=C[C@@H]2CN(C1)Cc1c([nH]c3ccccc13)[C@@](C(=O)OC)(c1cc3c(cc1OC)N(C)[C@H]1[C@@](O)(C(=O)OC)[C@H](OC(C)=O)[C@]4(CC)C=CCN5CC[C@]31[C@@H]54)C2` [vinorelbine], in the series with A549 tumors, the “inhibition of tumor growth (TGI) at day 21” value is listed as 45%.

In the case of `CC(=O)O[C@@]12CO[C@@H]1C[C@H](O)[C@@]1(C)C(=O)[C@H](O)C3=C(C)[C@@H](OC(=O)[C@H](O)[C@@H](NC(=O)OC(C)(C)C)c4ccccc4)C[C@@](O)([C@@H](OC(=O)c4ccccc4)[C@H]21)C3(C)C` [docetaxel], the “TGI on Day 14” value in the series on SW527 xenograft tumors (Example 5, h10H5 5 mg/kg weekly IP, docetaxel 12.5 mg/kg IV Days 0, 4, 8, B20-4.1 10 mg/kg weekly IP) is on record as 54%. Further, the “body weight losses leading to euthanasia” value with SW527 xenograft tumors (single-agent docetaxel 12.5 mg/kg, two mice Day 8, two mice Day 12) was greater than 20%.

For `O=c1[nH]cc(F)c(=O)[nH]1` [5-FU, 5-fluorouracil], the “% TGI at day 27” value in [1] amounted to 53%.

For `CCOC(=O)[C@H](CCc1ccccc1)N[C@@H](C)C(=O)N1CCC[C@H]1C(=O)O` [enalapril], the “reduction of the risk of developing cardiac cachexia” value in [2] was 19%.

Consider IR3, commercial anti-IGF-1R antibody, for which the results for the IC50 (read off the curve) in series [3], in [4] and in series [5] were 5 nM, 8 µg/mL and 5 µg/mL, respectively.

Take `CC(C)C[C@H](NC(=O)[C@H](Cc1ccccc1)NC(=O)c1cnccn1)B(O)O` [VELCADE® bortezomib, bortezomib]: the “effect on h10H5-induced IGF-1R subunit downregulation” value in series [6] is “more effective in preventing β-subunit downregulation”.

B1: chimeric 10H5-IgG (antibody, V domains shown)
VH: QVQLQQPGAELVKPGASVTLSCKASGYTFTRFWIHWVKQRPGQGLEWIGEINPSNGRTNYNENFKNKATLTVDTSSSTAYMQLSSLTSEVSVVYYCARGGRLDQWGQGTT
VL: DIVMTQSQKFMSTSLGDRVSVTCKASQNVGSNVAWYQQKPGQSPEALIYSASYRYSGVPDRFTGSGSGTDFTLTISNVQSEDLAEYFCHQYNNYPYTFGGGTKVEIKR
notes: also called human chimeric 10H5
Consider B1, for which the Kd amounted to 0.1 nM in [7] and 0.13 nM with cynomolgus-monkey IGF-1R.

B2: YW95.6 (Fab, V domains shown)
VH: EVQLVESGGGLVQPGGSLRLSCAASGFTFSSYAMSWVRQAPGKGLEWVSRISPSGGSTYYADSVKGRFTISADTSKNTAYLQMNSLRAEDTAVYYCAREEYYYWGAMDVWGQGTLVTVSS
VL: DIQMTQSPSSLSASVGDRVTITCRASQSISSYLAWYQQKPGKAPKLLIYGASSRASGVPSRFSGSGSGTDFTLTISSLQPEDFATYYCQQYYSSPLTFGQGTKVEIK
Take B2: the Kd in [8] amounted to 7.3 nM; in series [9], 8.6 nM.
